Data as given in patent publication US12338277.

Experiments:
Assay in all cases: cell-based or functional assay
[1] = biological target: HIV-1 Env of pseudovirus 6811.v7.c18 (HIV-1)
[2] = biological target: HIV-1 envelope of pseudovirus CAP45.2.00.G3 (HIV-1)
[3] = biological target: HIV-1 Env of pseudovirus Q769.d22 (HIV-1)
[4] = biological target: HIV-1 envelope of pseudovirus HIV-0013095-2.11 (HIV-1)
[5] = biological target: HIV-1 envelope spike of pseudovirus 6535.3 (HIV-1)
[6] = biological target: HIV-1 envelope of pseudovirus 235-47 (HIV-1)
[7] = biological target: HIV-1 Env of pseudovirus 928-28 (HIV-1)
[8] = biological target: HIV-1 Env of pseudovirus A07412M1.vrc12 (HIV-1)
[9] = biological target: HIV-1 envelope of pseudovirus 3817.v2.c59 (HIV-1)
[10] = biological target: HIV-1 Env of pseudovirus Du172.17 (HIV-1)
[11] = biological target: HIV-1 envelope of pseudovirus 6240_08_TA5_4622 (HIV-1)
[12] = biological target: HIV-1 envelope spike of pseudovirus TRJO4551.58 (HIV-1)
[13] = biological target: HIV-1 envelope of pseudovirus REJO4541.67 (HIV-1)
[14] = biological target: HIV-1 Env of pseudovirus C1080.c03 (HIV-1)
[15] = biological target: HIV-1 Env of pseudovirus 7030102001E5(Rev-) (HIV-1)
[16] = biological target: HIV-1 Env of pseudovirus HIV-16845-2.22 (HIV-1)
[17] = biological target: HIV-1 envelope spike of pseudovirus SS1196.1 (HIV-1)
[18] = biological target: HIV-1 envelope of pseudovirus C2101.c01 (HIV-1)
[19] = biological target: HIV-1 Env of pseudovirus X2131_C1_85 (HIV-1)
[20] = biological target: HIV-1 Env of pseudovirus PVO.4 (HIV-1)
[21] = biological target: HIV-1 Env of pseudovirus Ce0393_C3 (HIV-1)
[22] = biological target: HIV-1 envelope of pseudovirus Q451.e2 (HIV-1)
[23] = biological target: HIV-1 envelope of pseudovirus 3415.v1.c1 (HIV-1)
[24] = biological target: HIV-1 Env of pseudovirus CNE21 (HIV-1)
[25] = biological target: HIV-1 Env of pseudovirus CNE20 (HIV-1)
[26] = biological target: HIV-1 envelope of pseudovirus 6244_13_85_4576 (HIV-1)
[27] = biological target: HIV-1 envelope of pseudovirus CNE52 (HIV-1)
[28] = biological target: HIV-1 envelope of pseudovirus HIV-16845-2.22 (HIV-1)
[29] = biological target: HIV-1 envelope of pseudovirus BF1266.431a (HIV-1)
[30] = biological target: HIV-1 Env of pseudovirus C4118.c09 (HIV-1)
[31] = biological target: HIV-1 Env of pseudovirus 263-8 (HIV-1)
[32] = biological target: HIV-1 envelope of pseudovirus SC422661.8 (HIV-1)
[33] = biological target: HIV-1 envelope of pseudovirus CNE30 (HIV-1)
[34] = biological target: HIV-1 envelope of pseudovirus 6535.3 (HIV-1)
[35] = biological target: HIV-1 envelope of pseudovirus Du156.12 (HIV-1)
[36] = biological target: HIV-1 envelope of pseudovirus Q842.d12 (HIV-1)
[37] = biological target: HIV-1 Env of pseudovirus Ce703010054_2A2 (HIV-1)
[38] = biological target: HIV-1 envelope of pseudovirus 191084 B7-19 (HIV-1)
[39] = biological target: HIV-1 envelope of pseudovirus R2184.c04 (HIV-1)
[40] = biological target: HIV-1 Env of pseudovirus R2184.c04 (HIV-1)
[41] = biological target: HIV-1 Env of pseudovirus HIV-0013095-2.11 (HIV-1)
[42] = biological target: HIV-1 envelope spike of pseudovirus YU-2 (HIV-1) (UniProt P35961)
Sequence of HIV-1 envelope spike of pseudovirus YU-2 (HIV-1) (P35961 32-843): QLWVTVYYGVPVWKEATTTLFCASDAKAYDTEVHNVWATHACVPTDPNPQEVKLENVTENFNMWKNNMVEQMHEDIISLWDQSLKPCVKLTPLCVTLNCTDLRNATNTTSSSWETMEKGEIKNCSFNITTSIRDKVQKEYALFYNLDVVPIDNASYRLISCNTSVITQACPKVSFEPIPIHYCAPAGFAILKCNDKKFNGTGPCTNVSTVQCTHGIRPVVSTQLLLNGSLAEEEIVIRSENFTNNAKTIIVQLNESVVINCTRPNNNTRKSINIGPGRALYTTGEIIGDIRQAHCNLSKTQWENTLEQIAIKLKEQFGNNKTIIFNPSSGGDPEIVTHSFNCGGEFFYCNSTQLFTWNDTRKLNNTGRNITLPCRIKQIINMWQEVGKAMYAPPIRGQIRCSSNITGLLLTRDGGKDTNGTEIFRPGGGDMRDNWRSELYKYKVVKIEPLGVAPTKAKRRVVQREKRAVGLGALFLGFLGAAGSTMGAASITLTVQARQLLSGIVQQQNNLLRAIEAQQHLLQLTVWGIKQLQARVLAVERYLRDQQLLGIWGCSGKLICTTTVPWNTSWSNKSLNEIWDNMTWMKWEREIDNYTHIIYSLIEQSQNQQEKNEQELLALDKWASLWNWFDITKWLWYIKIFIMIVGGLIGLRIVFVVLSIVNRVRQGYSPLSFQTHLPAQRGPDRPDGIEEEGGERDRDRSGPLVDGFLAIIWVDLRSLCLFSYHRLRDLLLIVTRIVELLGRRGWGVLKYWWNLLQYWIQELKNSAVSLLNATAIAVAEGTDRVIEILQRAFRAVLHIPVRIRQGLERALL

[43] = biological target: HIV-1 envelope of pseudovirus 6952.v1.c20 (HIV-1)
[44] = biological target: HIV-1 Env of pseudovirus BJOX025000.01.1 (HIV-1)
[45] = biological target: HIV-1 Env of pseudovirus T278-50 (HIV-1)
[46] = biological target: HIV-1 envelope spike of pseudovirus PVO.4 (HIV-1)
[47] = biological target: HIV-1 envelope of pseudovirus 263-8 (HIV-1)
[48] = biological target: HIV-1 envelope spike of pseudovirus QH0692.42 (HIV-1)
[49] = biological target: HIV-1 Env of pseudovirus R1166.c01 (HIV-1)

Sequence of 10-996 (antibody) (VH): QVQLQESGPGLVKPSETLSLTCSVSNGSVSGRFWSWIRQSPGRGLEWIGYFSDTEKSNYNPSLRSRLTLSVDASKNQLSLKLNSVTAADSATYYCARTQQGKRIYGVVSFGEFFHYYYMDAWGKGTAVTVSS
Sequence of 10-996 (antibody) (VL): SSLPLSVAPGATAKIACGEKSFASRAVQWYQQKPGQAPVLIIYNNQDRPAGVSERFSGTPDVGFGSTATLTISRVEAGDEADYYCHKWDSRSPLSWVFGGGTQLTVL

## 10-996 (antibody)
[1]
  IC80 (TZM-bl neutralization): 0.011 µg/mL
[2]
  IC50 (TZM-bl neutralization): > 50 µg/mL
[3]
  IC80 (TZM-bl neutralization): > 50 µg/mL
[4]
  IC50 (TZM-bl neutralization): 31.5 µg/mL
[5]
  IC50 (TZM-bl neutralization assay): 0.018 µg/mL
  IC80 (TZM-bl neutralization assay): 0.085 µg/mL
[6]
  IC50 (TZM-bl neutralization): 0.128 µg/mL
[7]
  IC80 (TZM-bl neutralization): 7.15 µg/mL
[8]
  IC80 (TZM-bl neutralization): 0.07 µg/mL
[9]
  IC50 (TZM-bl neutralization): 8.15 µg/mL
[10]
  IC80 (TZM-bl neutralization): 0.607 µg/mL
[11]
  IC50 (TZM-bl neutralization): 0.095 µg/mL
[12]
  IC50 (TZM-bl neutralization assay): 0.516 µg/mL
  IC80 (TZM-bl neutralization assay): 4.26 µg/mL
[13]
  IC50 (TZM-bl neutralization): > 50 µg/mL
[14]
  IC80 (TZM-bl neutralization): > 50 µg/mL
[15]
  IC80 (TZM-bl neutralization): 0.044 µg/mL
[16]
  IC80 (TZM-bl neutralization): 9.93 µg/mL
[17]
  IC50 (TZM-bl neutralization assay): 0.007 µg/mL
  IC80 (TZM-bl neutralization assay): 0.04 µg/mL
[18]
  IC50 (TZM-bl neutralization): > 50 µg/mL
[19]
  IC80 (TZM-bl neutralization): 0.085 µg/mL
[20]
  IC80 (TZM-bl neutralization): 0.952 µg/mL
[21]
  IC80 (TZM-bl neutralization): > 50 µg/mL
[22]
  IC50 (TZM-bl neutralization): > 50 µg/mL
[23]
  IC50 (TZM-bl neutralization): 35.9 µg/mL
[24]
  IC80 (TZM-bl neutralization): 0.255 µg/mL
[25]
  IC80 (TZM-bl neutralization): < 0.001 µg/mL
[26]
  IC50 (TZM-bl neutralization): 0.353 µg/mL
[27]
  IC50 (TZM-bl neutralization): 4.53 µg/mL
[28]
  IC50 (TZM-bl neutralization): 1.32 µg/mL
[29]
  IC50 (TZM-bl neutralization): > 50 µg/mL
[30]
  IC80 (TZM-bl neutralization): > 50 µg/mL
[31]
  IC80 (TZM-bl neutralization): > 50 µg/mL
[32]
  IC50 (TZM-bl neutralization): 0.173 µg/mL
[33]
  IC50 (TZM-bl neutralization): 0.614 µg/mL
[34]
  IC50 (TZM-bl neutralization): 0.017 µg/mL
[35]
  IC50 (TZM-bl neutralization): 0.018 µg/mL
[36]
  IC50 (TZM-bl neutralization): > 50 µg/mL
[37]
  IC80 (TZM-bl neutralization): > 50 µg/mL
[38]
  IC50 (TZM-bl neutralization): 0.057 µg/mL
[39]
  IC50 (TZM-bl neutralization): > 50 µg/mL
[40]
  IC80 (TZM-bl neutralization): > 50 µg/mL
[41]
  IC80 (TZM-bl neutralization): > 50 µg/mL
[42]
  IC50 (TZM-bl neutralization assay): 0.256 µg/mL
  IC80 (TZM-bl neutralization assay): 0.891 µg/mL
[43]
  IC50 (TZM-bl neutralization): 0.044 µg/mL
[44]
  IC80 (TZM-bl neutralization): > 50 µg/mL
[45]
  IC80 (TZM-bl neutralization): > 50 µg/mL
[46]
  IC50 (TZM-bl neutralization assay): 0.211 µg/mL
  IC80 (TZM-bl neutralization assay): 1.72 µg/mL
[47]
  IC50 (TZM-bl neutralization): 10.9 µg/mL
[48]
  IC50 (TZM-bl neutralization assay): 0.395 µg/mL
  IC80 (TZM-bl neutralization assay): 1.4 µg/mL
[49]
  IC80 (TZM-bl neutralization): > 50 µg/mL

## PGT121 (antibody)
[1]
  IC80 (TZM-bl neutralization): 0.017 µg/mL
[2]
  IC50 (TZM-bl neutralization): 0.086 µg/mL
[3]
  IC80 (TZM-bl neutralization): > 50 µg/mL
[4]
  IC50 (TZM-bl neutralization): > 50 µg/mL
[5]
  IC50 (TZM-bl neutralization assay): 0.007 µg/mL
  IC80 (TZM-bl neutralization assay): 0.041 µg/mL
[6]
  IC50 (TZM-bl neutralization): 0.332 µg/mL
[7]
  IC80 (TZM-bl neutralization): > 50 µg/mL
[8]
  IC80 (TZM-bl neutralization): 0.406 µg/mL
[9]
  IC50 (TZM-bl neutralization): > 50 µg/mL
[10]
  IC80 (TZM-bl neutralization): 0.89 µg/mL
[11]
  IC50 (TZM-bl neutralization): 0.128 µg/mL
[12]
  IC50 (TZM-bl neutralization assay): 3.9 µg/mL
  IC80 (TZM-bl neutralization assay): 26.9 µg/mL
[13]
  IC50 (TZM-bl neutralization): 3.61 µg/mL
[14]
  IC80 (TZM-bl neutralization): > 50 µg/mL
[15]
  IC80 (TZM-bl neutralization): 0.043 µg/mL
[16]
  IC80 (TZM-bl neutralization): > 50 µg/mL
[17]
  IC50 (TZM-bl neutralization assay): 0.008 µg/mL
  IC80 (TZM-bl neutralization assay): 0.03 µg/mL
[18]
  IC50 (TZM-bl neutralization): > 50 µg/mL
[19]
  IC80 (TZM-bl neutralization): 0.058 µg/mL
[20]
  IC80 (TZM-bl neutralization): 0.945 µg/mL
[21]
  IC80 (TZM-bl neutralization): > 50 µg/mL
[22]
  IC50 (TZM-bl neutralization): > 50 µg/mL
[23]
  IC50 (TZM-bl neutralization): > 50 µg/mL
[24]
  IC80 (TZM-bl neutralization): 0.061 µg/mL
[25]
  IC80 (TZM-bl neutralization): 0.008 µg/mL
[26]
  IC50 (TZM-bl neutralization): 0.249 µg/mL
[27]
  IC50 (TZM-bl neutralization): 3.74 µg/mL
[28]
  IC50 (TZM-bl neutralization): 12.7 µg/mL
[29]
  IC50 (TZM-bl neutralization): > 50 µg/mL
[30]
  IC80 (TZM-bl neutralization): > 50 µg/mL
[31]
  IC80 (TZM-bl neutralization): 24.6 µg/mL
[32]
  IC50 (TZM-bl neutralization): 0.101 µg/mL
[33]
  IC50 (TZM-bl neutralization): 0.101 µg/mL
[34]
  IC50 (TZM-bl neutralization): 0.008 µg/mL
[35]
  IC50 (TZM-bl neutralization): 0.007 µg/mL
[36]
  IC50 (TZM-bl neutralization): 0.023 µg/mL
[37]
  IC80 (TZM-bl neutralization): > 50 µg/mL
[38]
  IC50 (TZM-bl neutralization): 0.042 µg/mL
[39]
  IC50 (TZM-bl neutralization): > 50 µg/mL
[40]
  IC80 (TZM-bl neutralization): > 50 µg/mL
[41]
  IC80 (TZM-bl neutralization): > 50 µg/mL
[42]
  IC50 (TZM-bl neutralization assay): 0.098 µg/mL
  IC80 (TZM-bl neutralization assay): 0.356 µg/mL
[43]
  IC50 (TZM-bl neutralization): 0.085 µg/mL
[44]
  IC80 (TZM-bl neutralization): > 50 µg/mL
[45]
  IC80 (TZM-bl neutralization): > 50 µg/mL
[46]
  IC50 (TZM-bl neutralization assay): 0.147 µg/mL
  IC80 (TZM-bl neutralization assay): 1.1 µg/mL
[47]
  IC50 (TZM-bl neutralization): 3.35 µg/mL
[48]
  IC50 (TZM-bl neutralization assay): 1.08 µg/mL
[49]
  IC80 (TZM-bl neutralization): > 50 µg/mL
